# Target: WT RBD of SARS-CoV-2 (S protein residues 319–539) (SARS-CoV-2, wild type (GenBank …, UniProt P0DTC2))
# Assay: ELISA
row,Binder,binding result
1,Nb 1-22 (VHH) VHH: HVQLVESGGGLVQPGGSLRLSCAASGRSFNSYLMGWFRQAPGKEREFVAWISGSPHDIIRYRDSVKDRFTISRDNAKNTVYLQMNSLKPVDTAVYYCAVGSLRVGSFSPDYWGQGTQVTVSS,binds
2,Nb 2-45 (VHH) VHH: QVQLVESGGGLVQAGGSLRLSCTASGYDFSILAIAWYRQAPGKERELVAAISRVGSTDYADSVKGRFTISRDNTKNTVSLQMDSLKPEDTAVYYCNAGIPMTTVLSGLGFWGQGTQVTVSS,binds
3,Nb 2-31 (VHH) VHH: QVQLVESGGGLVQAGESLRLSCAASKPTFRNFAAGWFRQTPGKDREFVAVIEYDGDSAYYADSVKGRFTISRDNAKNTVYLQMNRLKPGDTAVYICAIGGNHYDPSKYYTADEYDYWGQGTQVTVSS,binds
4,Nb 2-38 (VHH) VHH: QVQLVESGGGLVQAGGSLRLSCAAAARFSTSAMGWFRQAPGKEREFVAAISWSNTNTHYADTVKGRFTISADTAKETVDLQMNSLKPEDTAVYYCVQGGWGIRQPIIVDYWGKGTQVTVSS,binds

# Reference: doi:10.1101/2025.08.07.669152 (bioRxiv, 2025)
